Test results from patent US9744188B2, “Methods of promoting neuronal outgrowth by gypican 2 that binds to receptor protein tyrosine phosphatase sigma” (PRESIDENT AND FELLOWS OF HARVARD COLLEGE, priority 2011, dated 2017).
Entries after “also recorded” stand apart in the source; their conditions may differ. Where two headings read alike, the source gives them in different places.

T1: mouse RPTPσ sEcto-Fc (Mus musculus, UniProt B0V2N1)
T1 construct: made in house; host or cells: transiently transfected 293T cells
T1 sequence (B0V2N1 30-851 isoform B0V2N1-3 limits assumed): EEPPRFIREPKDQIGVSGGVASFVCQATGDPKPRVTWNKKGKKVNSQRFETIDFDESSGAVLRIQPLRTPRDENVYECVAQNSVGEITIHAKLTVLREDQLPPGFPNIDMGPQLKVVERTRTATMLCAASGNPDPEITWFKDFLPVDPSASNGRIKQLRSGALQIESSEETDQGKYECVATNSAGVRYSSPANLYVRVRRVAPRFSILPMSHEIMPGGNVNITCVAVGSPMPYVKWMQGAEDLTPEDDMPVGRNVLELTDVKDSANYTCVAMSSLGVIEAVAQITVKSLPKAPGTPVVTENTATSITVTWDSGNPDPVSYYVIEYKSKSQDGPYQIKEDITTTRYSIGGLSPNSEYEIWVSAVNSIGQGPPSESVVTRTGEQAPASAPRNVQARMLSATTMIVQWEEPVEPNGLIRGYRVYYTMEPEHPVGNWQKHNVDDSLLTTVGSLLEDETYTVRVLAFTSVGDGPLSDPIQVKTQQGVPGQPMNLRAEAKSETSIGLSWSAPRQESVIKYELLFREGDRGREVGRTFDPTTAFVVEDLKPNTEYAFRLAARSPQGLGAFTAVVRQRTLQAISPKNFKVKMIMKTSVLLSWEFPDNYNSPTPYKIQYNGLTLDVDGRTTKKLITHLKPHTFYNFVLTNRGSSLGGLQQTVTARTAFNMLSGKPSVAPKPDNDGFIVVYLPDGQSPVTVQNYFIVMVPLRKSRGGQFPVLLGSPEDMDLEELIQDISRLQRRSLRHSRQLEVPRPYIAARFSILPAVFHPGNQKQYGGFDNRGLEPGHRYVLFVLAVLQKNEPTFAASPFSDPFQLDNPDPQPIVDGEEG


Legend:
[1] = molecular target: RPTPσ on mouse dorsal root ganglion (DRG) neurons (mouse) (UniProt B0V2N1); test: cell-based or functional assay
[2] = molecular target: Mouse RPTPσ sEcto-Fc (mouse) (UniProt B0V2N1); test: solid phase binding assay, immobilised mouse RPTPσ sEcto-Fc, bound AP activity; Kd from the binding curve, one-to-one binding assumed; Scatchard inset
[3] = molecular target: Mouse RPTPσ sEcto-Fc (mouse) (UniProt B0V2N1); test: as above; remark: listed apart in the source
[4] = test system: wild-type mouse DRG neurons; test: DRG neurite outgrowth assay (GAP-43 immunostaining, total neurite outgrowth); type: cell-based; settings: for effect on neurite outgrowth of wild-type neurons: poly-D-lysine/laminin supplemented with neurocan 5 μg/ml or glypican-2 30 μg/ml
Experimental: (§1) DRGs of P8-12 RPTPσ^+/+ or RPTPσ^−/− mice were cut off from all roots. Neurons were dissociated and subjected to neurite outgrowth assays and analysis as described previously (S2). For experiments in FIG. 1, recombinant mouse Neurocan (5800-NC, R&D Systems) was used at 5 μg/ml and recombinant mouse Glypican-2 (2355-GP, R&D Systems) at 30 μg/ml. In FIG. 5, 30 μg/ml of Glypican-2 was pre-incubated with 1 unit/ml of Heparitinase III (HPNIII, H8891, Sigma) at 37° C. for 4 hrs where indicated, prior to use in outgrowth assays. For experiments in FIG. 19, recombinant mouse glypican-2 was used at 5 μg/ml, and Chondroitin Sulfate Proteoglycan mixture (CSPG, CC117, Millipore) was at 125 μg/ml. For experiments in FIGS. 24 and 25, Chondroitin Sulfate Proteoglycan mixture (CSPG, CC117, Millipore) was at 60 μg/ml, with or without the addition of HS at indicated length and concentration (1 μM for all HS in […]). Proteoglycans and heparin oligosaccharides were added to neuronal cultures 30 min after seeding and were replenished 24 hrs later. At 48 hrs after seeding, cells were fixed and immunostained with anti-GAP43 antibody (NB300-143, Novus). The whole of each well was scanned with a fluorescence microscope and the images were then analyzed for total neurite outgrowth using the Metamorph program.

[5] = molecular target: T1, mouse RPTPσ sEcto-Fc; test: Solid phase binding assay: proteoglycan-AP fusion proteins on immobilised RPTPσ sEcto-Fc; settings: neurocan pre-treated with chondroitinase ABC; glypican-2 pre-treated with heparitinase III
Experimental: Analysis of binding between RPTPσ sEcto-Fc and Glypican-2 or Neurocan alkaline phosphate (AP) fusion proteins was performed as described previously (S2, S26). All fusion proteins were produced in transiently transfected 293T cells. Briefly, the RPTPσ Fc-fusion protein was immobilised on 96-well Reactibind Protein A-coated plates (Pierce) and incubated with soluble proteoglycan-AP proteins which had been normalized for equal input AP activity. AP activity was determined by measuring substrate turnover on a microplate reader as described (S27, S28). […] In FIG. 23, the binding between RPTPσ-Fc and heparin-derived size-fractionated oligosaccharides with different lengths (HS6, HS8, HS10, HS17, HS23, HS30 and HS67, corresponding to hexasaccharide, octasaccharide, decasaccharide, or approximately 17, 23, 30 and 67 saccharide units; molecular weights 1,800 Da, 3,000 Da, 5,000 Da, 7,000 Da, 9,000 Da, and 20,000 Da; Neoparin) was analyzed with RPTPσ-Fc immobilised on 96-well Reactibind Protein A-coated plates (Pierce) and incubated with soluble biotinalated HS. The bound HS was quantified by AP enzyme activity following incubation with streptavidin-AP (Promega). […]

[6] = test system: RPTPσ−/− P8 mouse DRG neurons; test: DRG neurite outgrowth assay in RPTPσ−/− neurons; type: cell-based; settings: neurocan 5 μg/ml or glypican-2 30 μg/ml; 48 hours
Experimental: as §1

Sequence of Neurocan-alkaline phosphatase (P55066 23-1268): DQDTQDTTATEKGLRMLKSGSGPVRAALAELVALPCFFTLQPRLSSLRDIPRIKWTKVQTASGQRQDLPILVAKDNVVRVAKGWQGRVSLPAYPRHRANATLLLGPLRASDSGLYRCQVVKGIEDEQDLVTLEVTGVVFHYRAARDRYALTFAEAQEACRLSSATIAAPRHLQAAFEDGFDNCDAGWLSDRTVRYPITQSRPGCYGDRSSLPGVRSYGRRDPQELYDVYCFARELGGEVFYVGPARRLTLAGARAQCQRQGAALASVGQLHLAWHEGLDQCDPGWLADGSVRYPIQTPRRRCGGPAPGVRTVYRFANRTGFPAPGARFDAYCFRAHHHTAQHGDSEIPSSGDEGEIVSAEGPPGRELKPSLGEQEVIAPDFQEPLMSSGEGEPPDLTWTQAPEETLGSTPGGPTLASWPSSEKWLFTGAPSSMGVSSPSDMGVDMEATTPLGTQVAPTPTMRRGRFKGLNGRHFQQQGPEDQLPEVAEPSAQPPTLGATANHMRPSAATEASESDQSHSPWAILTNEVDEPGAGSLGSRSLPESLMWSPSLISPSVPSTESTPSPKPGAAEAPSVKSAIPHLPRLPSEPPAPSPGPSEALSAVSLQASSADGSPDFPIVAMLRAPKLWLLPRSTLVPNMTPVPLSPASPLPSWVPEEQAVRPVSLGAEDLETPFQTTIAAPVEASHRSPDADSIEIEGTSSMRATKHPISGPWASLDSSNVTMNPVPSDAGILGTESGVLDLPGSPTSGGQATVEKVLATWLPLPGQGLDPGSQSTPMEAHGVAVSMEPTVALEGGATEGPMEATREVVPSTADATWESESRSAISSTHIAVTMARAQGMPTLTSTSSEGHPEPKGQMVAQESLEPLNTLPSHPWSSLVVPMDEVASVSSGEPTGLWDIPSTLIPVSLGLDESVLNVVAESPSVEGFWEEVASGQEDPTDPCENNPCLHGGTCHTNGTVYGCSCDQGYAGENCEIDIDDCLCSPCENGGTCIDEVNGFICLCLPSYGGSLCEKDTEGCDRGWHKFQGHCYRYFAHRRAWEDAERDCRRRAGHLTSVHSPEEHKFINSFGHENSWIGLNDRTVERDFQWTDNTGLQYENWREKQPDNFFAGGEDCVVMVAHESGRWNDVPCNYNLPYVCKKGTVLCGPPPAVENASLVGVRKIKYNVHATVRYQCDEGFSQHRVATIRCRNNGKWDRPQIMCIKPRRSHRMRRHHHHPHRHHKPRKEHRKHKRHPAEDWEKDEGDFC

binding to RPTPσ after enzymatic removal of GAG chains [5]	Molecule	effect on neurite outgrowth of wild-type neurons ([4]; 48 hours)	effect on neurite outgrowth of RPTPσ−/− neurons compared with wild-type [6]	also measured
	recombinant mouse Neurocan (5800-NC, R&D Systems) (from UniProt P55066 23-637)			decrease in outgrowth of wild-type DRG neurons (neurite outgrowth assay) [1]: 60%
	Neurocan-alkaline phosphatase			Kd [2]: 21.2 nM
	Glypican-2-AP (protein, mouse, UniProt Q8BKV1 22-555, looked up, not shown: large carriers, carries heparan sulfate GAG chains (removed by heparitinase III)) HGSEAKVVRSCAETRQVLGARGYSLNLIPPSLISGEHLQVCPQEYTCCSSETEQKLIRDAEVTFRGLVEDSGSFLIHTLAARHRKFNEFFREMLSISQHSLAQLFSHSYGRLYSQHAVIFNSLFSGLRDYYEKSGEGLDDTLADFWAQLLERAFPLLHPQYSFPPDFLLCLTRLTSTADGSLQPFGDSPRRLRLQISRALVAARALVQGLETGRNVVSEALKVPVLEGCRQALMRLIGCPLCRGVPSLMPCRGFCLNVAHGCLSSRGLEPEWGGYLDGLLLLAEKLQGPFSFELAAESIGVKISEGLMHLQENSVKVSAKVFQECGTPHPVQSRSRRAPAPREEASRSWRASAEEERPTTAAGTNLHRLVWELRERLSRVRGFWAGLPVTVCGDSRMAADLSQETAPCWTGVGRGRYMSPVVVGSLNEQLHNPELDTSSPDVPTRRRRLHLRAATARMKAAALGQDLDMHDADEDASGSGGGQQYADDWKAGAVPVVPPARPPRPPRPPRRDGLGVRGGSGSARYNQGRSRNLG			Kd [3]: 10.5 nM
dramatically reduced binding	neurocan: a representative CSPG; Neurocan-AP fusion in binding assays, recombinant mouse Neurocan (5800-NC, R&D Systems) in outgrowth assays (protein) DQDTQDTTATEKGLRMLKSGSGPVRAALAELVALPCFFTLQPRLSSLRDIPRIKWTKVQTASGQRQDLPILVAKDNVVRVAKGWQGRVSLPAYPRHRANATLLLGPLRASDSGLYRCQVVKGIEDEQDLVTLEVTGVVFHYRAARDRYALTFAEAQEACRLSSATIAAPRHLQAAFEDGFDNCDAGWLSDRTVRYPITQSRPGCYGDRSSLPGVRSYGRRDPQELYDVYCFARELGGEVFYVGPARRLTLAGARAQCQRQGAALASVGQLHLAWHEGLDQCDPGWLADGSVRYPIQTPRRRCGGPAPGVRTVYRFANRTGFPAPGARFDAYCFRAHHHTAQHGDSEIPSSGDEGEIVSAEGPPGRELKPSLGEQEVIAPDFQEPLMSSGEGEPPDLTWTQAPEETLGSTPGGPTLASWPSSEKWLFTGAPSSMGVSSPSDMGVDMEATTPLGTQVAPTPTMRRGRFKGLNGRHFQQQGPEDQLPEVAEPSAQPPTLGATANHMRPSAATEASESDQSHSPWAILTNEVDEPGAGSLGSRSLPESLMWSPSLISPSVPSTESTPSPKPGAAEAPSVKSAIPHLPRLPSEPPAPSPGPSEALSAVSLQASSADGSPD	inhibition	inhibitory effect was decreased	reduction of neurite outgrowth ([4]; wild-type DRG neurons, neurocan 5 μg/ml, 48 hours): approximately 60%
dramatically reduced binding	glypican-2: a representative HSPG; Glypican2-AP fusion in binding assays, recombinant mouse Glypican-2 (2355-GP, R&D Systems) in outgrowth assays (protein) HGSEAKVVRSCAETRQVLGARGYSLNLIPPSLISGEHLQVCPQEYTCCSSETEQKLIRDAEVTFRGLVEDSGSFLIHTLAARHRKFNEFFREMLSISQHSLAQLFSHSYGRLYSQHAVIFNSLFSGLRDYYEKSGEGLDDTLADFWAQLLERAFPLLHPQYSFPPDFLLCLTRLTSTADGSLQPFGDSPRRLRLQISRALVAARALVQGLETGRNVVSEALKVPVLEGCRQALMRLIGCPLCRGVPSLMPCRGFCLNVAHGCLSSRGLEPEWGGYLDGLLLLAEKLQGPFSFELAAESIGVKISEGLMHLQENSVKVSAKVFQECGTPHPVQSRSRRAPAPREEASRSWRASAEEERPTTAAGTNLHRLVWELRERLSRVRGFWAGLPVTVCGDSRMAADLSQETAPCWTGVGRGRYMSPVVVGSLNEQLHNPELDTSSPDVPTRRRRLHLRAATARMKAAALGQDLDMHDADEDASGSGGGQQYADDWKAGAVPVVPPARPPRPPRPPRRDGLGVRGGSGSARYNQGRSRNLGS	strongly promoted outgrowth; also recorded: promotion of outgrowth	reduced to undetectable levels	neurite outgrowth relative to control at lower concentration ([4]; glypican-2 5 μg/ml, wild-type P10 DRG neurons (FIG. 19)): promoted outgrowth to a lesser extent; growth-promoting effect after heparitinase III treatment ([4]; glypican-2 30 μg/ml pre-incubated with 1 unit/ml HPNIII): significantly reduced its growth-promoting ability; also recorded: did not completely eliminate the growth promoting effect
